Assay results published in patent US20230174627A1 (published 2023).

T1: recombinant EBOV GP (Ebola virus (EBOV), UniProt Q05320 33-650)
T1 sequence: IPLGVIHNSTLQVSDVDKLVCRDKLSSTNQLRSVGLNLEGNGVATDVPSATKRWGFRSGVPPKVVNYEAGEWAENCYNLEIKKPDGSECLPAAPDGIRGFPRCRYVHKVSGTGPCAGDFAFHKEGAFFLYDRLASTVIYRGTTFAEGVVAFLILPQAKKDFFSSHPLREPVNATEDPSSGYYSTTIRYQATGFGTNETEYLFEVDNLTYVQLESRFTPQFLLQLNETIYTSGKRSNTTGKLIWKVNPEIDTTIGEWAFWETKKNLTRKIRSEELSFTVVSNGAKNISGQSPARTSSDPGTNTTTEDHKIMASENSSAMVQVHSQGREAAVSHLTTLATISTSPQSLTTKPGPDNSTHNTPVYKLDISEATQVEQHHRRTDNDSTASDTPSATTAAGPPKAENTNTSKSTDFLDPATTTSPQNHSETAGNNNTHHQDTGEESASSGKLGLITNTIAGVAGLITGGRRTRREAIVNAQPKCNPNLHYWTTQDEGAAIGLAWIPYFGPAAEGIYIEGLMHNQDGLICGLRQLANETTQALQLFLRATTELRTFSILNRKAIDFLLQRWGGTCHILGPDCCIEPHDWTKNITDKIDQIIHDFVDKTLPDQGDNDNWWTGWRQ

B1: X10F3 human IgG1 chimeric mAb (antibody, V domains shown)
VH: QVQLEQSGAEVKKPGTSVKVSCKASGFFTFGSDAISWVRQAPGQGLEWMGVIIPVVGARTYAEKFQGRITITADTSTSTVFMDLSSLRSDDTAVYYCAREGARAATGHYKSMDIWGRGRTLV
VL: ELQMTQSPSSLSASVGDRVTITCRASQDIGPFLNWYQHKPGKPPKLLIYDVSNLQDGVPSTFSGSGSGTDFTLTISNLQPEDFATYYCLHYANYPRTFGPGTKVEIK
B2: X10B6 human IgG1 chimeric mAb (antibody, V domains shown)
VH: B1 VH
VL: ELLMTQSPSSLSASVGDRVTITCRASQGISTYLSWFQQKPGKPPKLLIYLTSSLEDGVPSRFSGAGSGTEFTLTISNLQPEDFASYYCLQYQSYPRTFGPGTKVEIK
B3: 16F6 human IgG1 chimeric mAb (antibody, V domains shown)
VH: EVQLVESGGGLVTPGGSLKLSCAASGFAFNYYDMFWVRQNTEKRLEWVAYINSGGGNTYYPDTVKGRFTISRDNAKKTLFLQMSSLRSEDTAMYYCARQLYGNSFFDYWGQGTSLTV
VL: DIVMTQSHKFMSTSVGDRVTITCKASQDVTTAVAWYQQKPGHSPKLLIYWASTRHTGVPDRFTGSGSGTDFTLTLNSVQAEDLALYYCQQHYSTPLTFGAGTKLEL
B4: 17F6 human IgG1 chimeric mAb (antibody, V domains shown)
VH: DVQLQESGPGLVKPSQTVSLTCTVTGISITAGNYRWSWIRQFPGNKLEWIGYIYYSGTIAYNPSLTSRTAITRDSSKNQFFLEMNSLTAEDTATYYCARDRGWLLLDYWGQGTTLTVSS
VL: DVLMTQTPLSLPVSLGDQASISCRSSQTIVHSNGNTYLEWYLQKPGQSPKLLIYKVSSRFSGVPDRFSGSGSGTDFTLKISRVEAEDLGVYYCFQGSHFPYTFGGGTKLEIKR
B5: X10B1 human IgG1 chimeric mAb (antibody, V domains shown)
VH: EVQLLESGPSLVKPSETLTLTCAVSGASISGDYLNWIRQPPGKGLEWIGGIFGSGGSTDYSPSFKSRVTISTDTSKNQFSLKLTSMTTADTAVYFCATALRGARFDAFDFWGQGRRV
VL: DIELTQSPATLSLSPGERATLSCRASQSVSTYLAWYQKKPGQAPRLLFYGASNRATGIPDRFSGRRSGTDFTLTISSLEPEDVGVYYCQQYNKWNSFGQGTKVEIK
B6: X10H2 human IgG1 chimeric mAb (antibody, V domains shown)
VH: QVQLEQSGAEVKKPGTSVKVSCKASGFTFGSDAISWVRQAPGQGLEWMGVIIPVVGARTYAEKFQGRITITADTSTSTVFMDLSSIRSDDTAVYYCAREGARAATGHYKSMDIWGRGTLV
VL: EIELTQSPSSLYASVGDKVTITCRASQGISTYLNWYQQKPGKAPKLLIYAASSLQSGVPSRFSGSGSGTEFTLTISSLQPEDFAAVYCQQYNSYPRTFGQGTKVEIK

These binders were tested against T1, recombinant EBOV GP (assay: ELISA on plates coated with recombinant EBOV GP).

| Binder | binding result |
| --- | --- |
| B1 | no binding |
| B2 | no binding |
| B3 | no binding |
| B4 | no binding |
| B5 | no binding |
| B6 | no binding |
